Reference: publication PMC6090078

System: T1, AcrR (His6-AcrR) (Acinetobacter nosocomialis ATCC 17903 (NCTC 8102)?), ORF:b0b0015b
T1 sequence: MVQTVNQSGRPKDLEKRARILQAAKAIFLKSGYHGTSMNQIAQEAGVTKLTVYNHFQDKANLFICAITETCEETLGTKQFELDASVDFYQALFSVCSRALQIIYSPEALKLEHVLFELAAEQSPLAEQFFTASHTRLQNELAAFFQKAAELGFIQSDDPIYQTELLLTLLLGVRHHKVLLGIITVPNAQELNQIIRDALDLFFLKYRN
Experiment: EMSA

AAAACCCTCTAATAAAAGATTAAAAAAATAAATATTTATAAGTTTTTTTTAATTAATGTACCCATGGGTATATTAATTAAAAAACAAACAAACTATGATGCAAGCATATTGTGCCTTAAAAAATCAGTTTGAATAAGAGCGATAAGAT (double strand) [PacrA/acrR promoter fragment, 148 bp]
binding: binds
